The results in this text go back to patent US20180250395A1 (Janssen / Centocor, published 2018).

Experiment [1] has as its target T1, recombinant human CD47 extracellular domain (ECD), His-tagged, dimer (human, UniProt Q08722 19-141).
T1 construct: Dimeric fraction of the same His-tagged ECD; also called His-tagged CD47-ECD dimer protein
Kind of experiment: MSD; CD47-ECD dimer binding to captured SIRP alpha-Fc, mAb 10 µg/ml.

For experiment [2], the target named is T2, Cyno CD47 ECD protein, His-tagged, monomer (cyno).
T2 construct: extracellular domain; also called cynomolgus CD47
As to the kind of experiment: ProteOn SPR; mAb captured, ECD monomer as analyte.
Procedure: (§1) Kinetic binding affinities to human CD47 and Cyno CD47 ECD proteins were determined by a Protein Interaction Array System (ProteOn). Briefly, mAbs were captured on the sensor chip via anti-IgG-Fc to reach surface density of 200-350 RU. […] The dissociation was monitored for 30 min. Data were fitted to 1:1 binding model.

Experiment [3] has as its target T3, recombinant human CD47 extracellular domain (ECD), His-tagged, monomer (human, UniProt Q08722 19-141).
T3 construct: C-terminal 6xHis tag; monomeric fraction from Superdex 200; also called human CD47 ECD; CD47-ECD monomer
Kind of experiment: ProteOn SPR; mAb captured, ECD monomer as analyte.
Procedure: as §1

Experiment [4] addresses T4, human CD47 on Jurkat cells (human, UniProt Q08722 19-323).
T4 construct: Endogenous CD47 of the cell lines; also called CD47-expressing Jurkat cells; CD47 on HL60 cells
Kind of experiment: MSD on Jurkat cells; blocks SIRP alpha-Fc binding.
Source text: The ECL signal was plotted as a function of antibody concentrations, and EC₅₀ values were obtained from fitting the dose-response curves using non-linear regression model in GraphPad Prism.

Experiment [5] has as its target T2, Cyno CD47 ECD protein, His-tagged, …. As to the kind of experiment: ProteOn SPR; cyno KD / human KD.
Experiment [6] has the same target. As to the kind of experiment: ProteOn SPR; mAb captured, ECD monomer as analyte. This is another data set of the same source.
Experiment [7] deals with T3, recombinant human CD47 extracellular …. Kind of experiment: ProteOn SPR; mAb captured, ECD monomer as analyte. The source holds these as a separate data set.
Experiment [8] has as its target T2, Cyno CD47 ECD protein, His-tagged, …. Kind of experiment: ProteOn SPR; cyno KD / human KD. The source holds these as a separate data set.
Procedure: as §1
For experiment [9] the target is unchanged. Kind of experiment: ProteOn SPR; mAb captured, ECD monomer as analyte. The source holds these as a separate data set.
Experiment [10] deals with T3, recombinant human CD47 extracellular …. Kind of experiment: ProteOn SPR; mAb captured, ECD monomer as analyte. The source holds these as a separate data set.
The target is the same in experiment [11]. As to the kind of experiment: ProteOn SPR.
Experiment [12] has as its target T2, Cyno CD47 ECD protein, His-tagged, …. As to the kind of experiment: ProteOn SPR; cyno KD / human KD. The source holds these as a separate data set.
For experiment [13], the target named is T4, human CD47 on Jurkat cells. As to the kind of experiment: MSD on Jurkat cells; blocks SIRP alpha-Fc binding. The source holds these as a separate data set.
Experiment [14] deals with T3, recombinant human CD47 extracellular …. Kind of experiment: method not restated.

Residue numbers refer to the chain shown, from its start. Where two headings read alike, the source gives them in different places. Where only a bound is given, the exact number is not on record here.

B1: C47B91 (antibody, human IgG2, V domains shown)
VH: EVQLVQSGAEVKKPGESLKISCKGSGYSFTSYWIGWVRQMPGKGLEWMGIIYPGDSDTRYSPSFQGQVTISADKSISTAYLQWSSLKASDTAMYYCARVGRFASHQLDYWGQGTLVTVSS
VL: EIVLTQSPATLSLSPGERATLSCRASQSVNKALAWYQQKPGQAPRLLIYGASNRATGIPARFSGSGSGTDFTLTISSLEPEDFAVYYCQQGKGWPFTFGQGTKVEIK
notes: phage-derived; also called C47M91; parent C47B91
As a reminder, the Kd is the constant that tells how readily two partners part at equilibrium. By EC50 is commonly meant the concentration giving half of the maximal effect. With B1, the “% SIRP alpha Inhibition” value in [1] was 82.6%. For the same molecule, the Kd in experiment [2] amounted to 24.5 nM; in experiment [3], 15.6 nM; in [6] it was 17.8 nM; in experiment [7], 5.95 nM. The molecule also showed an EC50 in experiment [4] of 0.06 µg/mL. For the same molecule, the “KD Ratio Cyno/Human” value in experiment [5] stood at 3; in experiment [8] it was 1.6.

B2: C47B157 (human IgG2sigma) (antibody, V domains shown)
VH: QVQLVQSGAEVKKPGASVKVSCKASGYTFTDYNMHWVRQAPGQGLEWMGDIYPYNGGTGYNQKFKGRVTMTRDTSTSTVYMELSSLRSEDTAVYYCARGGWHAMDSWGQGTLVTVSS
VL: DIVMTQSPLSLPVTPGEPASISCRSRQSIVHTNRYTYLAWYLQKPGQSPQLLIYKVSNRFSGVPDRFSGSGSGTDFTLKISRVEAEDVGVYYCFQGSHVPYTFGGGTKLEIK
notes: HFA variant of C47B116; human IgG2sigma/kappa; also called IgG2 Fc-silent C47B157
Consider B2, for which the Kd came to 3.71 nM in experiment [9] and 3.53 nM in experiment [10]. Also, the “fold change of affinity against parent C47B116” value in experiment [11] is at most 5 fold. Besides, the “KD Ratio Cyno/Human” value in experiment [12] came out at 1.1. In experiment [13], this molecule returned an EC50 of 0.13 µg/mL.

B3: C47B116 (antibody, human IgG2, V domains shown)
VH: EVQLQQSGPELVKPGASVKISCKASGYTFTDYNMHWVKQSHGKSLEWIGDIYPYNGGTGYNQKFKSKATLTVDNSSSTAYMELRSLTSEDSAVYYCARGGWHAMDSWGQGTSVTVSS
VL: B2 VL with I2V, S7T, T14S, P15L, E17D, P18Q, Q50K, V88L
notes: hybridoma-derived, chimeric human IgG2 Fc-silent/human kappa; also called parent hybridoma mAb C47B116
Take B3: the Kd in experiment [9] is 0.95 nM; in experiment [10], 1.02 nM; in [2], 0.967 nM; in [3], 1.41 nM. In addition, the EC50 amounted to 0.1 µg/mL in experiment [4] and 0.12 µg/mL in experiment [13]. For the same molecule, the “KD Ratio Cyno/Human” value turned out to be 0.9 in experiment [12] and 0.7 in experiment [8].

B4: C47B161 (human IgG2sigma) (antibody, V domains shown)
VH: B2 VH with G44R, M70I, T76A, V79A
VL: B2 VL
notes: HFA variant of C47B116; human IgG2sigma/kappa; also called IgG2 Fc-silent C47B161
For B4, the Kd worked out at 2.96 nM in experiment [9] and 2.87 nM in experiment [10]. Moreover, in [11], the “fold change of affinity against parent C47B116” value is at most 5 fold. Moreover, the “KD Ratio Cyno/Human” value in experiment [12] was 1. For the same molecule, in [13], a half-maximal response (EC50) required 0.06 µg/mL.

B5: C47B167 (antibody, V domains shown)
VH: EVQLVQSGAEVKKPGESLKISCKGSGYTFTSYWMQWVRQMPGKGLEWMGEINPSNGRTDYNEKFRGQVTISADKSISTAYLQWSSLKASDTAMYYCARQGGSGYGNSYGFFDVWGQGTTVTVSS
VL: EIVLTQSPATLSLSPGERATLSCRASSSVSYMHWYQQKPGQAPRLLIYDTSRLASGIPARFSGSGSGTDFTLTISSLEPEDFAVYYCQQWRSNPYTFGGGTKVEIK
notes: isotype not restated
With B5, the Kd in [14] was 5.2 nM.

B6: B6H12.2 (human IgG2sigma) (antibody, V domains shown)
VH: EVKLVESGGDLVKPGGSLKLSCAASGFTFSGYGMSWVRQTPDKRLEWVATITSGGTYTYYPDSVKGRFTISRDNAKNTLYLQIDSLKSEDTAIYFCARSLAGNAMDYWGQGTSVTVSS
VL: DIVMTQSPATLSVTPGDRVSLSCRASQTISDYLHWYQQKSHESPRLLIKFASQSISGIPSRFSGSGSGSDFTLSINSVEPEDVGVYYCQNGHGFPRTFGGGTKLEIK
notes: also called IgG2 Fc-silent B6H12.2; positive control anti-CD47 mAb
As for B6, the Kd turned out to be 0.572 nM in [2] and 0.539 nM in experiment [3]. This molecule yielded an EC50 in [4] of 0.21 µg/mL. The “KD Ratio Cyno/Human” value in experiment [8] is 1.1.

B7: C47B147 (antibody, V domains shown)
VH: EVQLVQSGAEVKKPGESLKISCKGSGYTFTDYNMHWVRQMPGKGLEWMGDIYPYNGGTGYNQKFKGQVTISADKSISTAYLQWSSLKASDTAMYYCARGGWHAMDSWGQGTLVTVSS
VL: DIVMTQSPDSLAVSLGERATINCRSRQSIVHTNRYTYLAWYQQKPGQPPKLLIYKVSNRFSGVPDRFSGSGSGTDFTLTISSLQAEDVAVYYCFQGSHVPYTFGGGTKLEIK
notes: HFA variant of C47B116; human IgG2sigma/kappa
Take B7: the Kd is 13.5 nM in experiment [9] and 9.55 nM in experiment [10]. Moreover, the “fold decrease of affinity against parent C47B116” value in experiment [11] was over 6 fold. Also, the “KD Ratio Cyno/Human” value in experiment [12] amounted to 1.4. Also, in experiment [13], the EC50 came to 0.24 µg/mL.

B8: C47B151 (antibody, V domains shown)
VH: B2 VH with A16S, M70I, R72A, T74E, V79A
VL: B7 VL
notes: as for B7
Regarding B8, the Kd turned out to be 9.34 nM in experiment [9] and 6.89 nM in [10]. For the same molecule, the “fold decrease of affinity against parent C47B116” value in experiment [11] was over 6 fold. Also, the “KD Ratio Cyno/Human” value in experiment [12] amounted to 1.4. Also, the midpoint of the response in experiment [13], the EC50, lay at 0.29 µg/mL.
